# From paper PMC7749166 (Communications Biology, 2020)
# T1: human C5aR (C5aR^WT) (Homo sapiens, UniProt P21730)
# T1 construct: Flag (N); made in house; host or cells: HEK-293S GnTI- cells (BacMam baculovirus)
# T1 sequence (P21730 1-350): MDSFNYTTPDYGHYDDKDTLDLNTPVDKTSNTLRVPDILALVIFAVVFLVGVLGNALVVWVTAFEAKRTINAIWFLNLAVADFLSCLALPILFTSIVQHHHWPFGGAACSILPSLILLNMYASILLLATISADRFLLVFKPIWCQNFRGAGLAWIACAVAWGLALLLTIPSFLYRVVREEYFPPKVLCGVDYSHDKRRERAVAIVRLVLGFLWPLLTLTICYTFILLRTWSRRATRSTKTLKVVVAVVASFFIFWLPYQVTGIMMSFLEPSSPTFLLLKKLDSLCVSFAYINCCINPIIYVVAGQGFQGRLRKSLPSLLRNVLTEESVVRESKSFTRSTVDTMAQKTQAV
# Tests used:
# C5aR2 = details: cited from earlier work
# Excerpt: Our mechanistic insights into the C5a binding process to C5aR could offer a new framework to a better understanding or the intriguing functional divergence between the two C5a receptors and could potentially allow delinea ...
# C5aR extracellular side = test: AFM affinity imaging with C5a tip: specificity and receptor height; assay type: binding, human; details: free C5a in solution
# Procedure: (§1) The reconstituted C5aR sample solution (either wt-C5aR or mutants) was 20-fold diluted in fusion buffer solution (20 mM HEPES, 300 mM NaCl, and 25 mM MgCl2) and adsorbed on freshly cleaved mica for 15 min. After rinsing with imaging buffer (20 mM HEPES and 300 mM NaCl) the sample was transferred to the AFM.
# Rectangular Si3N4 AFM cantilevers with silicon tips (BioLever mini, Bruker) were first cleaned with chloroform for 10 min, rinsed with ethanol, N2 dried, and then cleaned for 15 min in an ultraviolet radiation and ozone cleaner (UV-O, Jetlight, CA, USA). For the aminofunctionalization, the cantilevers were immersed in an ethanolamine solution (3.3 g ethanolamine in 6.6 ml DMSO) overnight and then rinsed in DMSO (3 × 1 min) and ethanol (3 × 1 min), followed by N2 drying. This was followed by the N-hydroxysuccinimide (NHS)-PEG27-acetal linker attachment. […]
# In FD-based AFM measurements, the AFM cantilever is oscillated in a sinusoidal manner well below its resonance frequency, while the sample surface is contoured pixel-by-pixel. For each approach–retraction cycle of the oscillating cantilever, a force–distance curve is recorded. […] Adhesion maps were recorded using a scan rate of 0.2 Hz and 256 × 256 pixels. […]
# Several control experiments were designed to ensure that the measured interactions were indeed specific and the functionalization of the AFM tip successful. […]
# [1] = test system: C5aR with mutations Y11F and Y14F; details: cited from earlier work
# Excerpt: In line with our results, intrinsic binding energies have been previously described for intramolecular binding events inv ...
# human C5aR (C5aR^WT) [2] = molecular target: T1, human C5aR (C5aR^WT); test: FD-/FV-based AFM dynamic force spectroscopy (FNdY model) of ligand-functionalized tip vs wild-type C5aR; assay type: binding; details: FNdY fit
# Procedure: as §1
# (§2) Rectangular Si3N4 AFM cantilevers with silicon tips (BioLever mini, Bruker) were first cleaned with chloroform for 10 min, rinsed with ethanol, N2 dried, and then cleaned for 15 min in an ultraviolet radiation and ozone cleaner (UV-O, Jetlight, CA, USA). For the aminofunctionalization, the cantilevers were immersed in an ethanolamine solution (3.3 g ethanolamine in 6.6 ml DMSO) overnight and then rinsed in DMSO (3 × 1 min) and ethanol (3 × 1 min), followed by N2 drying. This was followed by the N-hydroxysuccinimide (NHS)-PEG27-acetal linker attachment. A 1 mg portion of the NHS-PEG27-acetal linker (JKU, Linz, Austria) was diluted in 0.5 ml chloroform with 30 µl triethylamine and the cantilevers were immersed in this solution for 2 h. After three rinsing steps of 10 min in chloroform and N2 drying, the cantilevers were immersed in a 1% citric acid solution for 10 min, rinsed with pure water (3 × 5 min), and dried with N2 once more. tris-NTA-derivatized AFM cantilevers were obtained by pipetting 100 µl of a 100 µM tris-N-nitrilotriacetic amine trifluoroacetate (Toronto Research Chemicals, Canada) (tris-NTA) solution onto the cantilevers, followed by the addition of 2 μl of a freshly prepared 1 M NaCNBH3 solution. The cantilevers were incubated for 1 h, then 5 μl of a 1 M ethanolamine solution pH 8.0 was added for 10 min to quench the reaction. tris-NTA cantilevers were further used to obtain C5a-derivatized tips. For this purpose, 100 μl of a 1 μM C5a protein solution was premixed with 5 μl NiCl2 5 mM and the mixture was pipetted onto the tris-NTA cantilevers. After 2 h of incubation time, the cantilevers were washed in HEPES buffer 3 × 5 min.
# (§3) (JKU, Linz, Austria) dissolved in 0.5 ml of chloroform with 30 μl of triethylamine, then washed with chloroform and dried with N2. […] After 3 h of reaction, cantilevers were washed with PBS 3 × 5 min.
# (§4) AFM experiments were performed with a Multimode 8 AFM equipped with a Nanoscope V controller (Bruker, Santa Barbara, CA, USA) operated in “PeakForce Tapping QNM mode”. All measurements were carried out in imaging buffer at room temperature (≈24 °C). For the high-resolution characterization of C5aR topographical features, triangular Si3N4 cantilevers (Scanasyst-Fluid+, Bruker) with a sharpened tetrahedral silicon tip of ≈2 nm radius, nominal spring constants of 0.35 N m^−1, and resonance frequency in liquid of ≈75 kHz were used. Multiparametric FD-based AFM measurements with derivatized tips were carried out using BioLever mini cantilevers (Bruker, Santa Barbara) having nominal spring constants of 0.1 N m^−1 and resonance frequency in liquid of ≈25 kHz. The spring constant was calibrated at the end of each experiment for all cantilevers used in this study using the thermal noise method.
# (§5) In FD-based AFM measurements, the AFM cantilever is oscillated in a sinusoidal manner well below its resonance frequency, while the sample surface is contoured pixel-by-pixel. For each approach–retraction cycle of the oscillating cantilever, a force–distance curve is recorded. Multiparametric FD-based AFM height, Young’s modulus, and adhesion maps are then obtained from a pixel-by-pixel reconstruction of the acquired data. Overview FD-based AFM maps were acquired by scanning the sample at 1 Hz and a resolution of 512 × 512 pixels, using a force setpoint of ≈150 pN, a 2 kHz oscillation frequency, and a peak-to-peak oscillation amplitude of 100 nm. Adhesion maps were recorded using a scan rate of 0.2 Hz and 256 × 256 pixels. The functionalized AFM cantilever was oscillated at 0.25 kHz with peak-to-peak oscillation amplitudes of 100 nm.
# human C5aR (C5aR^WT) [3] = test: as above; assay type: binding; details: sum of C5aR + PMX53 and C5aR∆Tyr values
# Procedure: as §1, §2, §3, §4, §5
# [4] = C5a tip vs C5aR^WT incubated with PMX53 (effector site blocked; probes binding site), ± s.e.m.
molecule,measurement,setting,value
"C5a: C5a, a large 74-amino acid glycoprotein; endogenous ligand of C5aR (His6-tag at N-terminal end for AFM tips) (protein, left off: His6, N-terminal, kept) TLQKKIEEIAAKYKHSVVKKCCYDGACVNNDETCEQRAARISLGPRCIKAFTECCVVASQLRANISHKDMQLGR",C5a binding to C5aR2 upon mutation of three N-terminal tyrosine residues,C5aR2,did not significantly change C5a binding to C5aR2
same,G-protein coupling at C5aR2,C5aR2,without any detectable G-protein coupling
same,β arrestins (βarr) recruitment at C5aR2,C5aR2,robust β arrestins (βarr) recruitment
same,binding probability of C5a tip after blocking with free C5a,C5aR extracellular side,significantly reduces the binding probability
same,signaling of C5aR induced by C5a upon Y11F and Y14F mutations,[1],could almost abolish the signaling of C5aR
same,residence time τ0.5,human C5aR (C5aR^WT) [2]; C5a tip vs C5aR^WT incubated with PMX53 (effector site blocked; probes binding site),0.2 ms
same,equilibrium force Feq,human C5aR (C5aR^WT) [2]; [4],29 ± 4 pN
same,free energy ΔGbu,human C5aR (C5aR^WT) [2]; [4],-3.9 ± 1.8 kcal/mol
same,binding equilibrium free energy ΔGbu,"human C5aR (C5aR^WT) [2]; ± s.e.m., ligand-derivatized AFM tip, 20 mM HEPES, 300 mM NaCl, ≈24 °C",-13.6 ± 4.1 kcal/mol
same,equilibrium force Feq,"human C5aR (C5aR^WT) [2]; ± s.e.m., ligand-derivatized AFM tip, C5aR in DOPC/CHS liposomes on mica, 20 mM HEPES, 300 mM NaCl, ≈24 °C",46 ± 7 pN
same,residence time τ0.5,"human C5aR (C5aR^WT) [2]; ligand-derivatized AFM tip, 20 mM HEPES, 300 mM NaCl, ≈24 °C",0.6 ms
same,"sum of binding free energy of both sites measured individually, ΔGbu (binding site+effector site)",human C5aR (C5aR^WT) [3],~-8.6 ± 2.3 kcal/mol
